The target of assay [1] is 5c1-I-E^k (murine) (UniProt P04224). Kind of assay: cell-based or functional assay.
Assay [2] addresses MCC-I-E^k (soluble I-Ek exchanged with the MCC peptide) (murine) (UniProt P04224). Kind of assay: cell-based or functional assay.
Another assay concerns the target 5c3-I-E^k (murine) (UniProt P04224). The assay is described as follows: SPR (Biacore T100), refolded TCR over peptide-exchanged biotinylated I-Ek on SA chip, equilibrium. (In general: Surface plasmon resonance follows binding to a sensor surface in real time, without labels.)
In assay [3] the target is 5c1-I-E^k (murine) (UniProt P04224). Described as above.
Assay [4] deals with MCC-I-E^k (soluble I-Ek exchanged with the MCC peptide) (murine) (UniProt P04224). The assay is described as above.

For the substance 5cc7 TCR, the results for the signaling potency (EC50) (with 5c1-I-E^k (murine) [1]; in assay [2]) were 1.5 µM and 0.0084 µM, respectively. Besides, the Kd (as a rule, the equilibrium constant for the complex coming apart) with 5c3-I-E^k (murine) stood at 62 µM; in the assay with 5c1-I-E^k (murine) [3] it was 115 µM; in assay [4] it was 41 µM.

Values taken from patent publication US20240125793A1.
